Assay results reported in the supplement of paper PMC12458215.
± gives the uncertainty stated by the source.

Test system: HEK293T
Assay: plasma membrane surface immunostaining intensity (anti-HA, deep receptor scanning) (arbitrary fluorescence units); higher = higher plasma membrane expression

Sequence	plasma membrane surface immunostaining intensity (GPCR class: A (Olfactory))	plasma membrane surface immunostaining intensity (GPCR class: A)	also measured
MKVGVLWLISFFTFTDGHGGFLGKNDGIKTKKELIVNKKKHLGPVEEYQLLLQVTYRDSKEKRDLRNFLKLLKPPLLWSHGLIRIIRAKATTDCNSLNGVLQCTCEDSYTWFPPSCLDPQNCYLHTAGALPSCECHLNNLSQSVNFCERTKIWGTFKINERFTNDLLNSSSAIYSKYANGIEIQLKKAYERIQGFESVQVTQFRNGSIVAGYEVVGSSSASELLSAIEHVAEKAKTALHKLFPLEDGSFRVFGKAQCNDIVFGFGSKDDEYTLPCSSGYRGNITAKCESSGWQVIRETCVLSLLEELNKNFSMIVGNATEAAVSSFVQNLSVIIRQNPSTTVGNLASVVSILSNISSLSLASHFRVSNSTMEDVISIADNILNSASVTNWTVLLREEKYASSRLLETLENISTLVPPTALPLNFSRKFIDWKGIPVNKSQLKRGYSYQIKMCPQNTSIPIRGRVLIGSDQFQRSLPETIISMASLTLGNILPVSKNGNAQVNGPVISTVIQNYSINEVFLFFSKIESNLSQPHCVFWDFSHLQWNDAGCHLVNETQDIVTCQCTHLTSFSILMSPFVPSTIFPVVKWITYVGLGISIGSLILCLIIEALFWKQIKKSQTSHTRRICMVNIALSLLIADVWFIVGATVDTTVNPSGVCTAAVFFTHFFYLSLFFWMLMLGILLAYRIILVFHHMAQHLMMAVGFCLGYGCPLIISVITIAVTQPSNTYKRKDVCWLNWSNGSKPLLAFVVPALAIVAVNFVVVLLVLTKLWRPTVGERLSRDDKATIIRVGKSLLILTPLLGLTWGFGIGTIVDSQNLAWHVIFALLNAFQGFFILCFGILLDSKLRQLLFNKLSALSSWKQTEKQNSSDLSAKPKFSKPFNPLQNKGHYAFSHTGDSSDNIMLTQFVSNE [ADGRF1]	–	–	plasma membrane surface immunostaining intensity (GPCR class: B): 466 ± 27
MENGSYTSYFILLGLFNHTRAHQVLFMMVLSIVLTSLFGNSLMILLIHWDHRLHTPMYFLLSQLSLMDVMLVSTTVPKMAADYLTGSKAISRAGCGAQIFFLPTLGGGECFLLAAMAYDRYAAVCHPLRYPTLMSWQLCLRMNLSCWLLGAADGLLQAVATLSFPYCGAHEIDHFFCETPVLVRLACADTSVFENAMYICCVLMLLVPFSLILSSYGLILAAVLHMRSTEARKKAFATCSSHVAVVGLFYGAAIFTYMRPKSHRSTNHDKVVSAFYTMFTPLLNPLIYSVKNSEVKGALTRCMGRCVALSRE [OR2T8]	132 ± 16	–	–
MNATGTPVAPESCQQLAAGGHSRLIVLHYNHSGRLAGRGGPEDGGLGALRGLSVAASCLVVLENLLVLAAITSHMRSRRWVYYCLVNITLSDLLTGAAYLANVLLSGARTFRLAPAQWFLREGLLFTALAASTFSLLFTAGERFATMVRPVAESGATKTSRVYGFIGLCWLLAALLGMLPLLGWNCLCAFDRCSSLLPLYSKRYILFCLVIFAGVLATIMGLYGAIFRLVQASGQKAPRPAARRKARRLLKTVLMILLAFLVCWGPLFGLLLADVFGSNLWAQEYLRGMDWILALAVLNSAVNPIIYSFRSREVCRAVLSFLCCGCLRLGMRGPGDCLARAVEAHSGASTTDSSLRPRDSFRGSRSLSFRMREPLSSISSVRSI [S1PR4]	–	6452 ± 53	–
MAATASPQPLATEDADSENSSFYYYDYLDEVAFMLCRKDAVVSFGKVFLPVFYSLIFVLGLSGNLLLLMVLLRYVPRRRMVEIYLLNLAISNLLFLVTLPFWGISVAWHWVFGSFLCKMVSTLYTINFYSGIFFISCMSLDKYLEIVHAQPYHRLRTRAKSLLLATIVWAVSLAVSIPDMVFVQTHENPKGVWNCHADFGGHGTIWKLFLRFQQNLLGFLLPLLAMIFFYSRIGCVLVRLRPAGQGRALKIAAALVVAFFVLWFPYNLTLFLHTLLDLQVFGNCEVSQHLDYALQVTESIAFLHCCFSPILYAFSSHRFRQYLKAFLAAVLGWHLAPGTAQASLSSCSESSILTAQEEMTGMNDLGERQSENYPNKEDVGNKSA [ACKR2]	–	6400 ± 110	–
MQGENFTIWSIFFLEGFSQYPGLEVVLFVFSLVMYLTTLLGNSTLILITILDSRLKTPMYLFLGNLSFMDICYTSASVPTLLVNLLSSQKTIIFSGCAVQMYLSLAMGSTECVLLAVMAYDRYVAICNPLRYSIIMNRCVCARMATVSWVTGCLTALLETSFALQIPLCGNLIDHFTCEILAVLKLACTSSLLMNTIMLVVSILLLPIPMLLVCISYIFILSTILRITSAEGRNKAFSTCGAHLTVVILYYGAALSMYLKPSSSNAQKIDKIISLLYGVLTPMLNPIIYSLRNKEVKDAMKKLLGKITLHQTHEHL [OR2K2]	144 ± 20	–	–
MANVTLVTGFLLMGFSNIQKLRILYGVLFLLIYLAALMSNLLIITLITLDVKLQTPMYFFLKNLSFLDVFLVSVPIPKFIVNNLTHNNSISILGCAFQLLLMTSFSAGEIFILTAMSYDRYVAICCPLNYEVIMNTGVCVLMASVSWAIGGLFGTAYTAGTFSMPFCGSSVIPQFFCDVPSLLRISCSETLMVIYAGIGVGACLSISCFICIVISYIYIFSTVLKIPTTKGQSKAFSTCFPHLTVFTVFIITAYFVYLKPPSNSPSVIDRLLSVIYTVMPPVFNPVTYSLRNNDMKCALIRLLQKTYGQEAYFI [OR14A2]	133 ± 42	–	–
MKALIFAAAGLLLLLPTFCQSGMENDTNNLAKPTLPIKTFRGAPPNSFEEFPFSALEGWTGATITVKIKCPEESASHLHVKNATMGYLTSSLSTKLIPAIYLLVFVVGVPANAVTLWMLFFRTRSICTTVFYTNLAIADFLFCVTLPFKIAYHLNGNNWVFGEVLCRATTVIFYGNMYCSILLLACISINRYLAIVHPFTYRGLPKHTYALVTCGLVWATVFLYMLPFFILKQEYYLVQPDITTCHDVHNTCESSSPFQLYYFISLAFFGFLIPFVLIIYCYAAIIRTLNAYDHRWLWYVKASLLILVIFTICFAPSNIILIIHHANYYYNNTDGLYFIYLIALCLGSLNSCLDPFLYFLMSKTRNHSTAYLTK [F2RL2]	–	221 ± 21	–
MSPCGPLNLSLAGEATTCAAPWVPNTSAVPPSGASPALPIFSMTLGAVSNLLALALLAQAAGRLRRRRSAATFLLFVASLLATDLAGHVIPGALVLRLYTAGRAPAGGACHFLGGCMVFFGLCPLLLGCGMAVERCVGVTRPLLHAARVSVARARLALAAVAAVALAVALLPLARVGRYELQYPGTWCFIGLGPPGGWRQALLAGLFASLGLVALLAALVCNTLSGLALLRARWRRRSRRPPPASGPDSRRRWGAHGPRSASASSASSIASASTFFGGSRSSGSARRARAHDVEMVGQLVGIMVVSCICWSPMLVLVALAVGGWSSTSLQRPLFLAVRLASWNQILDPWVYILLRQAVLRQLLRLLPPRAGAKGGPAGLGLTPSAWEASSLRSSRHSGLSHF [PTGER1]	–	1460 ± 250	–
MDVVDSLLVNGSNITPPCELGLENETLFCLDQPRPSKEWQPAVQILLYSLIFLLSVLGNTLVITVLIRNKRMRTVTNIFLLSLAVSDLMLCLFCMPFNLIPNLLKDFIFGSAVCKTTTYFMGTSVSVSTFNLVAISLERYGAICKPLQSRVWQTKSHALKVIAATWCLSFTIMTPYPIYSNLVPFTKNNNQTANMCRFLLPNDVMQQSWHTFLLLILFLIPGIVMMVAYGLISLELYQGIKFEASQKKSAKERKPSTTSSGKYEDSDGCYLQKTRPPRKLELRQLSTGSSSRANRIRSNSSAANLMAKKRVIRMLIVIVVLFFLCWMPIFSANAWRAYDTASAERRLSGTPISFILLLSYTSSCVNPIIYCFMNKRFRLGFMATFPCCPNPGPPGARGEVGEEEEGGTTGASLSRFSYSHMSASVPPQ [CCKAR]	–	6447 ± 43	–
MAEHDYHEDYGFSSFNDSSQEEHQDFLQFSKVFLPCMYLVVFVCGLVGNSLVLVISIFYHKLQSLTDVFLVNLPLADLVFVCTLPFWAYAGIHEWVFGQVMCKSLLGIYTINFYTSMLILTCITVDRFIVVVKATKAYNQQAKRMTWGKVTSLLIWVISLLVSLPQIIYGNVFNLDKLICGYHDEAISTVVLATQMTLGFFLPLLTMIVCYSVIIKTLLHAGGFQKHRSLKIIFLVMAVFLLTQMPFNLMKFIRSTHWEYYAMTSFHYTIMVTEAIAYLRACLNPVLYAFVSLKFRKNFWKLVKDIGCLPYLGVSHQWKSSEDNSKTFSASHNVEATSMFQL [CXCR6]	–	967 ± 65	–
MRAPGALLARMSRLLLLLLLKVSASSALGVAPASRNETCLGESCAPTVIQRRGRDAWGPGNSARDVLRARAPREEQGAAFLAGPSWDLPAAPGRDPAAGRGAEASAAGPPGPPTRPPGPWRWKGARGQEPSETLGRGNPTALQLFLQISEEEEKGPRGAGISGRSQEQSVKTVPGASDLFYWPRRAGKLQGSHHKPLSKTANGLAGHEGWTIALPGRALAQNGSLGEGIHEPGGPRRGNSTNRRVRLKNPFYPLTQESYGAYAVMCLSVVIFGTGIIGNLAVMCIVCHNYYMRSISNSLLANLAFWDFLIIFFCLPLVIFHELTKKWLLEDFSCKIVPYIEVASLGVTTFTLCALCIDRFRAATNVQMYYEMIENCSSTTAKLAVIWVGALLLALPEVVLRQLSKEDLGFSGRAPAERCIIKISPDLPDTIYVLALTYDSARLWWYFGCYFCLPTLFTITCSLVTARKIRKAEKACTRGNKRQIQLESQMNCTVVALTILYGFCIIPENICNIVTAYMATGVSQQTMDLLNIISQFLLFFKSCVTPVLLFCLCKPFSRAFMECCCCCCEECIQKSSTVTSDDNDNEYTTELELSPFSTIRREMSTFASVGTHC [GPR37]	–	158 ± 26	–
MQALNITPEQFSRLLRDHNLTREQFIALYRLRPLVYTPELPGRAKLALVLTGVLIFALALFGNALVFYVVTRSKAMRTVTNIFICSLALSDLLITFFCIPVTMLQNISDNWLGGAFICKMVPFVQSTAVVTEILTMTCIAVERHQGLVHPFKMKWQYTNRRAFTMLGVVWLVAVIVGSPMWHVQQLEIKYDFLYEKEHICCLEEWTSPVHQKIYTTFILVILFLLPLMVMLILYSKIGYELWIKKRVGDGSVLRTIHGKEMSKIARKKKRAVIMMVTVVALFAVCWAPFHVVHMMIEYSNFEKEYDDVTIKMIFAIVQIIGFSNSICNPIVYAFMNENFKKNVLSAVCYCIVNKTFSPAQRHGNSGITMMRKKAKFSLRENPVEETKGEAFSDGNIEVKLCEQTEEKKKLKRHLALFRSELAENSPLDSGH [QRFPR]	–	392 ± 31	–
MEGNQTWITDITLLGFQVGPALAILLCGLFSVFYTLTLLGNGVIFGIICLDSKLHTPMYFFLSHLAIIDMSYASNNVPKMLANLMNQKRTISFVPCIMQTFLYLAFAVTECLILVVMSYDRYVAICHPFQYTVIMSWRVCTILVLTSWSCGFALSLVHEILLLRLPFCGPRDVNHLFCEILSVLKLACADTWVNQVVIFATCVFVLVGPLSLILVSYMHILGAILKIQTKEGRIKAFSTCSSHLCVVGLFFGIAMVVYMVPDSNQREEQEKMLSLFHSVFNPMLNPLIYSLRNAQLKGALHRALQRKRSMRTVYGLCL [OR2A2]	129 ± 17	–	–
MLPDWKSSLILMAYIIIFLTGLPANLLALRAFVGRIRQPQPAPVHILLLSLTLADLLLLLLLPFKIIEAASNFRWYLPKVVCALTSFGFYSSIYCSTWLLAGISIERYLGVAFPVQYKLSRRPLYGVIAALVAWVMSFGHCTIVIIVQYLNTTEQVRSGNEITCYENFTDNQLDVVLPVRLELCLVLFFIPMAVTIFCYWRFVWIMLSQPLVGAQRRRRAVGLAVVTLLNFLVCFGPYNVSHLVGYHQRKSPWWRSIAVVFSSLNASLDPLLFYFSSSVVRRAFGRGLQVLRNQGSSLLGRRGKDTAEGTNEDRGVGQGEGMPSSDFTTE [FFAR2]	–	3600 ± 470	–
MEEAILLNQTSLVTYFRLRGLSVNHKARIAMFSMFLIFYVLTLIGNVLIVITIIYDHRLHTPMYFFLSNLSFIDVCHSTVTVPKMLRDVWSEEKLISFDACVTQMFFLHLFACTEIFLLTVMAYDRYVAICKPLQYMIVMNWKVCVLLAVALWTGGTIHSIALTSLTIKLPYCGPDEIDNFFCDVPQVIKLACIDTHVIEILIVSNSGLISVVCFVVLVVSYAVILVSLRQQISKGKRKALSTCAAHLTVVTLFLGHCIFIYSRPSTSLPEDKVVSVFFTAVTPLLNPIIYTLRNEEMKSALNKLVGRKERKEEK [OR4E1]	264 ± 95	–	–
